Biological target: dynorphin A-(1-13)-OH 1-13 (Homo sapiens, UniProt P01213)
Test: radioligand competition

Ki: 4 nM
B1: mu opioid receptor (protein)
chain: MDSSTGPGNTSDCSDPLAQASCSPAPGSWLNLSHVDGNQSDPCGLNRTGLGGNDSLCPQTGSPSMVTAITIMALYSIVCVVGLFGNFLVMYVIVRYTKMKTATNIYIFNLALADALATSTLPFQSVNYLMGTWPFGTILCKIVISIDYYNMFTSIFTLCTMSVDRYIAVCHPVKALDFRTPRNAKIVNVCNWILSSAIGLPVMFMATTKYRQGSIDCTLTFSHPTWYWENLLKICVFIFAFIMPVLIITVCYGLMILRLKSVRMLSGSKEKDRNLRRITRMVLVVVAVFIVCWTPIHIYVIIKALITIPETTFQTVSWHFCIALGYTNSCLNPVLYAFLDENFKRCFREFCIPTSSTIEQQNSTRVRQNTREHPSTANTVDRTNHQLENLEAETAPLP

From publication PMC3942532 (2014)
